Measurements: article doi:10.1101/2024.09.20.614047, “The Role of ATP Synthase Subunit e (ATP5I) in Mediating the Metabolic and Antiproliferative Effects of Metformin” (bioRxiv, 2024)

Target: the molecule itself
Test: SEC; gel filtration of purified rATP5I (Superose 12 10/300 GL in legend B; calibrated Superose 6 10/300 GL in legend C); oligomeric state of the protein in solution

B1: recombinant purified ATP5I (ATP synthase subunit e), N-terminal 6x-His-tagged (natural protein, human, UniProt P56385 1-69, looked up)
chain: MVPPVQVSPLIKLGRYSALFLGVAYGATRYNYLKPRAEEERRIAAEEKKKQDELKRIARELAEDDSILK
notes: No cleavage of the His tag is described; the gel filtration legend names the Nter-6×His-ATP5I construct; also called rATP5I; recombinant ATP5I; source: Rosetta E. coli BL21, purified (solubilised in 6 M guanidine, HisTrap FF, desalting column, concentrated); not shown: 6x-His, N-terminal, kept
stoichiometry N: ~10
